Measurements from article PMC4457900, “Preclinical Pharmacokinetic Studies of the Tritium Labelled D-Enantiomeric Peptide D3 Developed for the Treatment of Alzheimer´s Disease” (PLoS ONE, 2015).
“Also recorded” adds a separate entry of the source.

Columns and labels:
[1] = target: T1, human serum albumin (HSA) (Homo sapiens, UniProt P02768); test: Plasma protein binding, TRANSIL XL kit, HSA; type: in vitro ADME; conditions: 5 μM D3 (with 3H-D3) in PBS, LSC of supernatant, above detection limit of the kit, n = 2
T1 construct: purchased Sovicell GmbH, Leipzig, Germany
Method: Plasma protein binding was estimated by incubation of D3 with varying concentrations of protein using TRANSIL^XL binding kits (Sovicell GmbH, Leipzig, Germany). KD values were determined by titrating a constant drug concentration against different concentrations of human serum albumin (HSA) and α1-acid glycoprotein (AGP). Experiments were performed as recommended for the kit. To obtain the desired D3 stock solution of 80 μM, non-radioactively labelled D3 was dissolved in PBS and 5% ^3H-labelled D3 solution was added for detection purposes. A final concentration of 5 μM D3 was applied in the assay. After incubation and centrifugation 15 μl supernatant were taken and scintillation cocktail was added. This was done in triplicate. Radioactivity was then quantified using liquid scintillation counting. After measuring the disintegrations per minute (dpm) of the supernatant containing the unbound peptide, the D3 fraction bound to the titrated protein was calculated and plotted against the protein concentrations. […]
For bioavailability determination, the unbound fraction of D3 (fu) was calculated using the equation below: fu=100*CD3−KD−Cphysiol/2+KD*CD3+(CD3−KD−Cphysiol/2)^2/CD3 (1) For very low D3 concentrations in blood (CD3), Eq (1) can be simplified by Eq (2), where the unbound fraction of D3 can be calculated independently of the applied D3 concentration. […]

[2] = Proteolytic stability in mouse plasma (TLC, autoradiography); type: in vitro ADME; conditions: freshly prepared mouse plasma, 37°C, 1 μCi (approx. 0.08–0.8 μg) peptide with 1 μl plasma, D3 up to 2 days, L-form 0 and 60 min, 3H-autoradiography
Method: In order to study the proteolytic stability of peptides in biological extracts, tritium labelled peptides were incubated with liver microsomes (pooled from mouse (CD-1), Sigma-Aldrich), freshly prepared mouse plasma or extracts of brain, liver and kidney at 37°C for different time periods (from 0 min to 2 days). 1 μCi (approx. 0.08–0.8 μg) radioactive labelled peptide was mixed with 1 μl microsomes stock solution, plasma or organ extracts, respectively (in great excess to peptide). Mixtures containing tritium-labelled peptides were applied onto HPTLC Silica Gel 60 plates (OMNILAB, Essen, Germany) for thin layer chromatography (TLC) with a mobile solvent (2-Butanol/Pyridine/Ammonia(28%)/Water(39/34/10/26)). After development, a phosphor imaging plate for ^3H-autoradiography (FUJIFILM, Tokyo, Japan) was exposed to the TLC plates for 3 days. Images were acquired with a BAS reader and AIDA software (Raytest, Freiburg, Germany). Retardation factor (Rf) of each substance was defined as the ratio of the migration distance of the centre of a separated spot to the migration distance of the solvent front.

Substance | Kd [1] [µM] | proteolytic degradation in plasma [2]
D3: fully D-enantiomeric peptide identified by mirror-image phage display for binding to Aβ (1–42) (RPRTRLHTHRNR; all residues are D-amino acids (rprtrlhthrnr); tracer form carries 4,5-3H-D-Leu at position 6) | > 1400 | –
RPRTR-(4,5-^3H-Leu)-HTHRNR [3H-(L)-D3, tritium labelled L-form enantiomer of D3, RPRTR-(4,5-3H-Leu)-HTHRNR] | – | significant degradation already after 60 min; also recorded: Obvious proteolytic degradation
